Residue numbers refer to the chain shown, from its start.

Broadly, the Kd is the free concentration of one partner at which half of the binding sites on the other are occupied at equilibrium, for simple one-to-one binding. Read a high Kd as weaker binding.

The target in experiment [1] is T1, ALPP (Homo sapiens, UniProt P05187). Briefly: BLI binding kinetics, human ALPP immobilised on AR2G sensors (KD / KD apparent). The conditions noted are these: VHH domains. The protocol:
(§1) Binding kinetics were determined using the Biolayer Interferometry (BLI) Octet K2 system (Sartorius). Human ALPP, ALPPL2, ALPL (each fused with a cysteine stabilised leucine zipper) and ALPI, (SEQ ID NO: 265, SEQ ID NO: 266 and SEQ ID NO: 267 and SEQ ID NO: 264 respectively) were immobilised in sodium acetate pH5 buffer to AR2G sensors using amine coupling. All assays were conducted in PBS with a plate temperature of 25° C. Ka (M^−1s^−1), Kd (s^−1) and KD (nM) values were determined using Octet Data Analysis High Throughput software (ForteBio) for Biolayer Interferometry.
(§2) Binding kinetics were determined using the Biolayer Interferometry (BLI) Octet K2 or R4 system (Sartorius). Human ALPP, ALPPL2 and ALPL all fused with a disulphide stabilised leucine zipper (SEQ ID NO: 265, SEQ ID NO: 266, and SEQ ID NO: 267) and ALPI His (SEQ ID NO: 264) were used in BLI experiments. For KD apparent measurements, the ALPP proteins were immobilised in sodium acetate pH5 buffer to AR2G sensors using amine coupling. To measure 1:1 interactions, AHC biosensors were used to immobilise Fc-fused proteins. All assays were conducted in HBS-EP with a plate temperature of 25° C. Ka (M^−1s^−1), Kd (s^−1) and KD (nM) values were determined using Octet Data Analysis High Throughput software (Sartorius) for Biolayer Interferometry.
as §2, with “NO:264)” for “NO: 264)”
Background: BLI is a label-free optical method that tracks binding on a fibre tip over time.

For experiment [2], the target named is T1, ALPP. Briefly: Epitope binning by BLI competition assay. The conditions noted are these: BLI competition on immobilised ALPP. In kind it is binding. The protocol: To determine epitope cross reactivity BLI competition assays were conducted. AR2G sensors were used and ALPP immobilised as above. ALPP sensors were then dipped into a well containing a saturating concentration of the initial binder for ten minutes to get an association curve. The sensor was then dipped into a well containing the same concentration of initial binder plus 20 nM of a secondary binding.
An increase in the association curve was indicative that the second VHH bound to a distinct epitope from the initial binder. Monomers with identical CDR3s were grouped as likely to be in the same epitope bin and only one from each group used in the epitope binning experiment.

In another experiment the target is T2, hALPI (Homo sapiens, UniProt P09923).
T2 sequence (P09923 with tags, fused parts or gaps): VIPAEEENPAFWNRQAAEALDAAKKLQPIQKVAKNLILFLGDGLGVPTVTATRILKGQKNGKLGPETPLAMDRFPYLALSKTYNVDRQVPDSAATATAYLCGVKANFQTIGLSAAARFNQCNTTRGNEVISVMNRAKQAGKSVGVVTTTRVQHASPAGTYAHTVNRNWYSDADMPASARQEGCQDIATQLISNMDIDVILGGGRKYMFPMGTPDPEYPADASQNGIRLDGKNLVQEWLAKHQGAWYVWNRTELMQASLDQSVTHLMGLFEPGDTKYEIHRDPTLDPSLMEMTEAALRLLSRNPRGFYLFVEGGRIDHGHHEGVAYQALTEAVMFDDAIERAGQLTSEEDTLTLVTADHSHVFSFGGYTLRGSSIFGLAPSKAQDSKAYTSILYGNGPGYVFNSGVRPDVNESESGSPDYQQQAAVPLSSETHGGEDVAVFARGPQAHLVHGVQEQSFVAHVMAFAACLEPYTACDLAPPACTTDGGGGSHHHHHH
Kind of experiment: BLI binding to ALPI His. The conditions noted are these: VHH-hFc fusions, very low response values. The protocol:
as §1
Binding kinetics were determined using the Biolayer Interferometry (BLI) Octet K2 or R4 system (Sartorius). Human ALPP, ALPPL2 and ALPL all fused with a disulphide stabilised leucine zipper (SEQ ID NO: 265, SEQ ID NO: 266, and SEQ ID NO: 267) and ALPI His (SEQ ID NO: 264) were used in BLI experiments. […] Ka (M^−1s^−1), Kd (s^−1) and KD (nM) values were determined using Octet Data Analysis High Throughput software (Sartorius) for Biolayer Interferometry.
Binding kinetics were determined using the Biolayer Interferometry (BLI) Octet K2 or R4 system (Sartorius). […] Ka (M^−1s^−1), Kd (s^−1) and KD (nM) values were determined using Octet Data Analysis High Throughput software (Sartorius) for Biolayer Interferometry.

T1 sequence (P05187 with tags, fused parts or gaps): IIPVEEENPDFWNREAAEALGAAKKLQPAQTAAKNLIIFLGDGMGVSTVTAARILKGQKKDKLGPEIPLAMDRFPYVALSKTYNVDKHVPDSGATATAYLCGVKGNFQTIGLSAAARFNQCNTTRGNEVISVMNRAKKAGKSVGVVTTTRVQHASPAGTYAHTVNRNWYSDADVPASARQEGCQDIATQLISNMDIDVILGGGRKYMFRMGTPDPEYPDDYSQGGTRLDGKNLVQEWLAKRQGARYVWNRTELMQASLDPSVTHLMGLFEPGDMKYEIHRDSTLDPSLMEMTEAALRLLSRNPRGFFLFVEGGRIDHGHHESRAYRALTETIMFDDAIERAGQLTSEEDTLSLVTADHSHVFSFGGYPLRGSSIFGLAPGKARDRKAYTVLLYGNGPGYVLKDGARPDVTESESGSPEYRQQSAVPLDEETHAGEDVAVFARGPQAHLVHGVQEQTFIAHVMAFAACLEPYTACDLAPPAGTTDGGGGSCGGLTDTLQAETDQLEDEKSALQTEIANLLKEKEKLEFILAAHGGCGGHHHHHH

B1: B01: ALPP/ALPPL2 targeting VHH domain, SEQ ID NO: 20 (protein)
VHH: QVQLVESGGGLVQAGGSLRLSCEVTRSPMPIDTMAWYRQAPGRQRELVAIISRSGSTNYADSVKGRFTISRNDTKSTMYKSTMYLKMNTLELEDTGVYYCNAVGLWNGAEYWGQGTQVTVSS
B1: in the experiment with ALPP [1], the “hALPP Ka” value amounted to 162000 M⁻¹ s⁻¹ and the “hALPP Kd” value is 0.000191 s⁻¹. Further, the epitope bin result in the experiment with ALPP [2] is reported as “three”. For the same molecule, the affinity in the experiment with hALPI, expressed as Kd, was 148 nM.

B2: A06: ALPP/ALPPL2 targeting VHH domain, SEQ ID NO: 17; tested C-terminally His-tagged (protein)
VHH: QVHLVESGGGLVQAGGSLRLSCAASGRTFLSMGWFRQAPGKEREFVAAISWTGGSTGYADSVKGRFTISRESDKETMYLQMNSLKPEDTAVYYCAARGDVYYGGDDATRYKYWGQGTQVTVSS
modifications: C-terminal His tag
notes: tested C-terminally His-tagged
As for B2, in the experiment with ALPP [1], the “hALPP Ka” value was 117000 M⁻¹ s⁻¹ and the “hALPP Kd” value is 0.000154 s⁻¹. Further, the epitope bin result with ALPP [2] is “two”.

B3: E10: ALPP/ALPPL2 targeting VHH domain, SEQ ID NO: 31 (protein)
VHH: QVQLVESGGGLVQAGGSLRLSCAVSGRALSDYNIGWFRQAPGKEREFVARKTWDGSSTRYDDSVKGRFTVSIEDAKNTAYLQMSSLKTEDTAVYYCAAGRYSRARGWEYDYWGQGTQVTVSS
Regarding B3, in the experiment with ALPP [1], the “hALPP Ka” value was 54200 M⁻¹ s⁻¹ and the “hALPP Kd” value is below 1e-07 s⁻¹. Further, the epitope bin result with ALPP [2] is on record as “one”.

B4: F05: ALPP/ALPPL2 targeting VHH domain, SEQ ID NO: 34 (protein)
VHH: B3 VHH with V24A, L29F, S30G, K51R, E73D, D74N, S84N, A104V
In the case of B4, in the experiment with ALPP [1], the “hALPP Ka” value was 13900 M⁻¹ s⁻¹ and the “hALPP Kd” value was below 1e-07 s⁻¹. Besides, in the experiment with ALPP [2], the epitope bin entry is “one”.

B5: A05: ALPP/ALPPL2 targeting VHH domain, SEQ ID NO: 16; tested C-terminally His-tagged (protein)
VHH: QVQLVESGGGLVQAGASLTLSCAASGFTFNTRSIVWFRQAPGKEREAVSCISKVAGSTYYGDSVQGRFSSSTDNAKNTVSLQMNSLKPEDTAVYTCAASFAPNCYGWSVAANMEYWGEGTMVTVSS
modifications: C-terminal His tag
notes: as for B2
Consider B5, for which, in the experiment with ALPP [1], the “hALPP Ka” value was determined as 260000 M⁻¹ s⁻¹ and the “hALPP Kd” value was below 1e-07 s⁻¹. For the same molecule, in the experiment with ALPP [2], the epitope bin result was “one”.

B6: F08: ALPP/ALPPL2 targeting VHH domain, SEQ ID NO: 35 (protein)
VHH: QVQLVESGGGSVQAGGSLRLSCAASGPSLSNYAMGWFRQAPGKEREFVAGISWGGGRTSYTDSVKGRFTISRDNAKNTVYLQMNNLKPEDTGVYYCAGRYGRGRNVEYEYDYWGQGTQVTVSS
Regarding B6, in the experiment with ALPP [1], the “hALPP Ka” value stood at 252000 M⁻¹ s⁻¹ and the “hALPP Kd” value is below 1e-07 s⁻¹. Further, the epitope bin entry with ALPP [2] is given as “one”. Moreover, the Kd with hALPI is 10.8 nM.

B7: D10: ALPP targeting VHH domain, SEQ ID NO: 28 (protein)
VHH: QVQLVESGGGLVQPGGSLRLSCAASGSIFSVNTMGWYRQAPGKQRDLVAVATSGGTIHYADSVKGRFTISRDNAKNTVYLQMNSLKPEDTAVYYCNLVVPYGMIAGDHDYWGQGTKVTVSS
As to B7, in the experiment with ALPP [1], the “hALPP Ka” value stood at 67300 M⁻¹ s⁻¹ and the “hALPP Kd” value is 0.000013 s⁻¹. Further, the epitope bin result with ALPP [2] is given as “five”.

B8: E06: ALPP/ALPPL2 targeting VHH domain, SEQ ID NO: 30 (protein)
VHH: QVHLVESGGGLVQAGGSLRLSCAASRRSFSEYAMGWFRQAPGKEREFVAAIGWSGVIEYADSVKGRFTISRDNAKDTVYLQMNSLKPEDTAVYYCAAGLGIRVVSQTPAYWGQGTQVTVSS
For B8, in the experiment with ALPP [1], the “hALPP Ka” value is 106000 M⁻¹ s⁻¹ and the “hALPP Kd” value is below 1e-07 s⁻¹. In addition, in the experiment with ALPP [2], the epitope bin result was “one”.

B9: D04: ALPP/ALPPL2 targeting VHH domain, SEQ ID NO: 26 (protein)
VHH: QVQLVESGGGLVQPGGSLRLSCAASESTFSINVMGWYRQAPGKQRELVATITSGDITNYADSVKGRFTISRDNAENTVYLRTNSLKPEDTAVYYCNARGEYHSGNEYDYWGQGTQVTVSS
For B9, in the experiment with ALPP [1], the “hALPP Ka” value was 85100 M⁻¹ s⁻¹ and the “hALPP Kd” value is below 1e-07 s⁻¹. The epitope bin result with ALPP [2] was “four”.

B10: C07: ALPP/ALPPL2 targeting VHH domain, SEQ ID NO: 25 (protein)
VHH: QVQLVESGGGLVQAGESLRLACAASGTIFSGNAVGWYRQAPEKQREWVSSITDYGDTDYAEAVKGRFTISRDNAKNTVYLQMNSLKPEDTAVYYCYVYQRGESEEYWGQGTQVTVSS
For the molecule B10, in the experiment with ALPP [1], the “hALPP Ka” value is 129000 M⁻¹ s⁻¹ and the “hALPP Kd” value is 0.000028 s⁻¹. Also, in the experiment with ALPP [2], the epitope bin entry is “four”.
